Experimental findings from patent US20180326084A1 (Genmab, published 2018) are described below.

Experiment [1] has as its target T1, AXLECDHis (human, UniProt P30530 26-447).
T1 construct: theoretical mass 46 kDa used; also called extracellular domain (ECD) of human AXL (aa 1-447) with a C-terminal His tag; soluble recombinant AXL extracellular domain
Briefly: BLI (Octet), IgG on anti-human Fc sensor, AXLECDHis analyte. For orientation: In BLI a coated tip is dipped into the sample, and binding shifts an interference pattern.

Experiment [2] concerns the target T2, human AXL (full length) (human, UniProt P30530 26-894).
T2 construct: also called TH1021-AXL; TH1021-hAXL
Briefly: flow cytometry, HEK293T cells with full-length human AXL. On the technique in general: In flow cytometry, cells or beads pass a laser one at a time.

Experiment [3] addresses T1, AXLECDHis. Briefly: BLI (Octet), IgG on anti-human Fc sensor, AXLECDHis analyte. This is another data set of the same source.
Experiment [4] has as its target T3, human AXL with a cynomolgus monkey extracellular domain (ECD) (cynomolgus monkey (Macaca …, UniProt P30530 26-894)).
T3 construct: Chimera on transfected HEK293T cells; also called cynomolgus AXL; cynomolgus AXL-ECD
T3 chain: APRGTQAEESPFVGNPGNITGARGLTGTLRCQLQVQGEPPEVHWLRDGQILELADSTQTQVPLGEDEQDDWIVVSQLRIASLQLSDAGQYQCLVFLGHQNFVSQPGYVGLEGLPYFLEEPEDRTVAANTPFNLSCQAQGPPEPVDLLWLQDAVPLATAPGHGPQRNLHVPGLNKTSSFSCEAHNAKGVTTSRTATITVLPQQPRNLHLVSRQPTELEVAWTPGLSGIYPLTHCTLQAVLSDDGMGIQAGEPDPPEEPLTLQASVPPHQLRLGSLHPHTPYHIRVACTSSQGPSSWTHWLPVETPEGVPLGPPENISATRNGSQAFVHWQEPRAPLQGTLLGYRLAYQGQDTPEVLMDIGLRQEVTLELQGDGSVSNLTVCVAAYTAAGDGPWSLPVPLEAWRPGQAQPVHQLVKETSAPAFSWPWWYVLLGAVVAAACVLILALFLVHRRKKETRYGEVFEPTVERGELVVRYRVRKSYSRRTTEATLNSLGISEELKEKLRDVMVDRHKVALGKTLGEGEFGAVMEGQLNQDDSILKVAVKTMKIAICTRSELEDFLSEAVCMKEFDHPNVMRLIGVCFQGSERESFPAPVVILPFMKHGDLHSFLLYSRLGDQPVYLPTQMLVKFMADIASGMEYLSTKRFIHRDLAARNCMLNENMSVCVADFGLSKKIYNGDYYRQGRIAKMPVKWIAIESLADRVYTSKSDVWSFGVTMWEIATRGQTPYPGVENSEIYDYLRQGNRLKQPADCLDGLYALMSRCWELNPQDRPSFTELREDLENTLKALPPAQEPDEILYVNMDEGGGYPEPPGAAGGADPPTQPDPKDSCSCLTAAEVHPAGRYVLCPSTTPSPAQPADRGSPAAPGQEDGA
Briefly: flow cytometry, HEK293T cells with human AXL carrying cynomolgus ECD.

Experiment [5] has as its target T2, human AXL (full length). Briefly: flow cytometry, HEK293T cells transiently transfected with human AXL.
Experiment [6] addresses T4, Homo sapiens AXL-Mus musculus Ig1 domain (p33-AXL-mIg1) (human-mouse chimera, UniProt P30530 8-894).
T4 construct: Expressed in HEK293F cells; also called hsAXL-mmIg1; hsAXL-mmIgl
T4 chain: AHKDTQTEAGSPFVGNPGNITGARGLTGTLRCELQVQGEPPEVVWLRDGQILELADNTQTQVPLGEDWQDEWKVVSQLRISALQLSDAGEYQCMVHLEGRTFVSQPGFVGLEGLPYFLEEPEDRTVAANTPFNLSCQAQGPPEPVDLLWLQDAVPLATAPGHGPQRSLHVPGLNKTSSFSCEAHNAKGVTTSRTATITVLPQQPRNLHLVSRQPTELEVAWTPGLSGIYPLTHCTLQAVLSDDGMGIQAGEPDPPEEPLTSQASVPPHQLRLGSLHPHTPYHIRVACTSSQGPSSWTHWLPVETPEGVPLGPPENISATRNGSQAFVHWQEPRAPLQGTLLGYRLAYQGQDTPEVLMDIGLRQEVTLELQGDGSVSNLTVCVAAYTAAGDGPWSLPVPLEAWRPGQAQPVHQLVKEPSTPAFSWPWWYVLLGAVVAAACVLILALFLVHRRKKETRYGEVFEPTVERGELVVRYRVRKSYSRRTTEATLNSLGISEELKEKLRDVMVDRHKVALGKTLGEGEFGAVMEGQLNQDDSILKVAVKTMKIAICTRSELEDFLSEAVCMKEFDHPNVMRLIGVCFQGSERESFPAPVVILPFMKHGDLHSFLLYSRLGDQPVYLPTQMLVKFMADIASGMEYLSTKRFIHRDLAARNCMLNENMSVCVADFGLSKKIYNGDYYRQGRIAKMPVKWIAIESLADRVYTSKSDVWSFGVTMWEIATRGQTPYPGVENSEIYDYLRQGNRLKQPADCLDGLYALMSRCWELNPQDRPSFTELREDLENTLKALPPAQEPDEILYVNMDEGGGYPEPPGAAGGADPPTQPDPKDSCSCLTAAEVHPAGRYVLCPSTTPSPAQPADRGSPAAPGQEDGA
Briefly: flow cytometry, 1 µg/mL antibody, transfected HEK293F cells.

Experiment [7] has as its target T5, Homo sapiens AXL-Mus musculus FN1 domain (p33-AXL-mFN1) (human-mouse chimera, UniProt P30530 26-894).
T5 construct: Expressed in HEK293F cells; also called hsAXL-mmFN1; TH1021-mFN1
T5 chain: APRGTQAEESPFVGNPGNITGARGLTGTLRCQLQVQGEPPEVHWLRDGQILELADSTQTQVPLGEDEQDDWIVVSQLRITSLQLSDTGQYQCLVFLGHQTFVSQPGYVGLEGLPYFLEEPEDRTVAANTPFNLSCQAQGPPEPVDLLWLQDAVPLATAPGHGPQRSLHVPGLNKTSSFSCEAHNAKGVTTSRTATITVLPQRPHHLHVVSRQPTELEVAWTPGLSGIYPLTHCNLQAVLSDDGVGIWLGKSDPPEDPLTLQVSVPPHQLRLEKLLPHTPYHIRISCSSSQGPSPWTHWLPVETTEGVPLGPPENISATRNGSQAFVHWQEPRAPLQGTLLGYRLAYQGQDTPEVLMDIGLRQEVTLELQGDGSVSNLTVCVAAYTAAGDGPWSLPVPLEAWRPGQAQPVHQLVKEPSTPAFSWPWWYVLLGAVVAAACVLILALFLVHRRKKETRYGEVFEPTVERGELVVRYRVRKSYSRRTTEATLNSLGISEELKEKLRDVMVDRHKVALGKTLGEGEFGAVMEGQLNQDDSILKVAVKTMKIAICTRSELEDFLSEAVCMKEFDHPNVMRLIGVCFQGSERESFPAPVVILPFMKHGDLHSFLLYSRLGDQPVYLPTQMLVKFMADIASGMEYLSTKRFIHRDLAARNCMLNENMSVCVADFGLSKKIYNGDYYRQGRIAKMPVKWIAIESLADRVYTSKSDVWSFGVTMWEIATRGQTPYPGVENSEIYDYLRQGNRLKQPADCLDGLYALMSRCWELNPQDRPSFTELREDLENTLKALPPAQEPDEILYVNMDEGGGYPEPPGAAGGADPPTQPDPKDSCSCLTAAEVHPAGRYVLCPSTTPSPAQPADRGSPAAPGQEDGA
Described as above.

The target in experiment [8] is T6, Homo sapiens AXL-Mus musculus FN2 domain (p33-AXL-mFN2) (human-mouse chimera, UniProt P30530 26-894).
T6 construct: Expressed in HEK293F cells; also called hsAXL-mmFN2; TH1021-mFN2
T6 chain: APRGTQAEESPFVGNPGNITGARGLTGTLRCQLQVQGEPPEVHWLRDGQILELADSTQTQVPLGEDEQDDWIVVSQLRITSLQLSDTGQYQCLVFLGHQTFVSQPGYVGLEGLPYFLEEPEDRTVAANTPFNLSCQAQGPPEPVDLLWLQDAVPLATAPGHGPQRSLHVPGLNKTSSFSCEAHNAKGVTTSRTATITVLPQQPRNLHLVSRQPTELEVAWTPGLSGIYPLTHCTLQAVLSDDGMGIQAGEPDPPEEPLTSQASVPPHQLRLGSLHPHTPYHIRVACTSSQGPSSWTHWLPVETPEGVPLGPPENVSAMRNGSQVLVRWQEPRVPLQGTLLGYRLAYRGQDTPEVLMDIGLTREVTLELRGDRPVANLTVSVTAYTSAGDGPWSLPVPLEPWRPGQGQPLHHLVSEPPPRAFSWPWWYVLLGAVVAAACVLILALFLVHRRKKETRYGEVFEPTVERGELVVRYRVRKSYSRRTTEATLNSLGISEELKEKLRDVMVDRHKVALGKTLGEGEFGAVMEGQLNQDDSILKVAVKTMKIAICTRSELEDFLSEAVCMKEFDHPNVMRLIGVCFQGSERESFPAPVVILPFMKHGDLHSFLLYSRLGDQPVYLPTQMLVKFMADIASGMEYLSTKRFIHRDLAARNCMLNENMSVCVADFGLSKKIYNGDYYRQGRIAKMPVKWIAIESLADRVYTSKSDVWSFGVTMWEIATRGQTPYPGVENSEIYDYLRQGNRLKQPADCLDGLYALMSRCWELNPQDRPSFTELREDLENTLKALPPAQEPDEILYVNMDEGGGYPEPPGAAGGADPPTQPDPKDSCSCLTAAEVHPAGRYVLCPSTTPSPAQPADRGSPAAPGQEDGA
The description is as above.

In experiment [9] the target is T2, human AXL (full length). Briefly: flow cytometry, A431 cells, no Gas6.
Experiment [10] addresses T2, human AXL (full length). Briefly: flow cytometry, A431 cells pre-incubated with 10 µg/mL Gas6 (competitor).

Changes are numbered by the printed parent chain. Read-outs that look alike come from different tables or passages of the source.

Broadly, the EC50 is the concentration at which the effect is half-maximal. In general, Kd refers to the free concentration of one partner at which half of the binding sites on the other are occupied at equilibrium, for simple one-to-one binding. As usually defined, the koff is the rate constant with which the complex falls apart. Broadly, the kon is a measure of how fast the partners come together. Broadly, the EC50 (read off the curve) is the concentration at which the effect is half-maximal.

B1: IgG1-AXL-183-N52Q (antibody, V domains shown)
VH: QVQLQQWGAGLLKPSETLSLTCAVYGGSFSGYYWSWIRQPPGKGLEWIGEIQQSGSTNYNPSLKSRVTISVDTSKNQFSLKLSSVTAADTSVYYCASGNWDHFFDYWGQGTLVTVSS
VL: DIQMTQSPSSVSASVGDRVTITCRASQGISSWLAWYQHKPGKAPKLLIYATSSLQSGVTSRFSGSGSGTDFTLTISSLQPEDFATYYCQQAKSFPWTFGQGTKVEIK
notes: Expressed as human IgG1,κ; also called IgG1-AXL-183-N520
Regarding B1, the “fold change of dissociation rate against wild-type IgG1-AXL-183” value with AXLECDHis [1] was approximately 2.5 fold. Further, in the experiment with human AXL (full length) [2], the half-maximal effective concentration (EC50) was 0.35 µg/mL. Also, in the experiment with AXLECDHis [3], the Kd came to 24 nM, the off-rate (koff) stood at 0.001 s⁻¹ and the kon was found to be 42000 M⁻¹ s⁻¹. Further, the half-maximal effective concentration (EC50) in experiment [4] is 0.324 µg/mL.

B2: IgG1-AXL-183-A-vcDuo3 (antibody, V domains shown)
VH: B1 VH with Q52N
VL: B1 VL
modifications: drug-linker on lysine(s); chain and position not given
notes: also called IgG1-AXL-183-vcDuostatin3; IgG1-AXL-183-vcDuo3
Turning to B2, the 50% effective concentration (EC50 (read off the curve)) in the experiment with human AXL (full length) [5] was approximately 0.2 µg/mL.

B3: IgG1-AXL-171 (antibody, V domains shown)
VH: EVQLLESGGGLVQPGGSLRLSCAASGFTFSSYAMSWVRQAPGKGLEWVSDISVSGGSTYYADSVKGRFTISRDNSKNTLYLQMNSLRAEDTAVYYCAKEGYIWFGESLSYAFDIWGQGTMVTVSS
VL: not shown
In the case of B3, the binding result in [6], in [7] and in [8] was “binds” in each case.

B4: IgG1-AXL-148-A-vcDuo3 (antibody, V domains shown)
VH: EVQLLESGGGLVQPGGSLRLSCAASGFTFSSYAMTWVRQAPGKGLEWVSAISISGGSTFYADSVKGRFTISRDNSKNTLYLQMNSLRAEDTAVYYCRGYSGYVYDAFDFWGQGTMVTVSS
VL: DIQMTQSPSSLSASVGDRVTITCRASQGISNWLAWYQQKPEKAPKSLIYAASSLQSGVPSRFSGSGSGTDFTLTISSLQPEDFATYYCQQYNSYPLTFGGGTKVEIK
modifications: drug-linker on lysine(s); chain and position not given
notes: also called IgG1-AXL-148-vcDuostatin3; IgG1-AXL-148-vcDuo3
As to B4, the binding result in the experiment with human AXL (full length) [5] is reported as “binds”.

B5: IgG1-AXL-511 (antibody, V domains shown)
VH: EVQLLESGGGLVQPGGSLRLSCAASGFTFSSYAMNWVRQAPGKGLEWVSGISGSGGHTYHADSVKGRFTISRDNSKNTLYLQMNSLRAEDTAVYYCAKDRYDILTGYYNLLDYWGQGTLVTVSS
VL: B4 VL with N31S, K42E, T102A
notes: also called clone 511
Regarding B5, the concentration for a half-maximal effect (EC50) with human AXL (full length) [9] was determined as 0.12 µg/mL. In the experiment with AXLECDHis [1], this molecule showed a dissociation constant Kd of 23 nM, a koff of 0.0039 s⁻¹ and a kon of 170000 M⁻¹ s⁻¹. For the same molecule, in the experiment with human AXL (full length) [10], the EC50 is 0.3 µg/mL and the “maximal binding in presence of Gas6 (% of binding in absence of Gas6)” value is 93%.
